Columns and labels:
[1] = tested on: GFP-pdt (GFP with C-terminal wild-type M. florum ssrA tag) [GFP: P42212]
[2] = tested on: GFP-pdt#2 (Example 1) [GFP: P42212]
[3] = tested on: GFP-pdt#3 (Example 1) [GFP: P42212]
[4] = tested on: GFP-pdt#4 (Example 1) [GFP: P42212]
[5] = tested on: GFP-pdt#5 (Example 1) [GFP: P42212]
[6] = tested on: GFP-pdt#5A (Example 1) [GFP: P42212]
[7] = tested on: GFP-pdt#5B (Example 1) [GFP: P42212]
[8] = tested on: GFP-pdt#5H (Example 1) [GFP: P42212]
[9] = tested on: GFP-pdt#6 (Example 1) [GFP: P42212]
[10] = tested on: untagged GFP (GFPmut3b) [GFP: P42212]

Question: With Mesoplasma florum Lon protease (mf-Lon) as the substance, how does the Fold Degradation (0 vs 50 ng/ml aTc) [1] read?
Answer: 20.7 fold

Question: And the “GFP level after mf-Lon expression (Example 2)” value [1]?
Answer: reduced to 3% of its initial levels

Question: What about the Fold Degradation (0 vs 50 ng/ml aTc) (GFP-pdt#1 [GFP: P42212]) of the same substance?
Answer: 24.6 fold

Question: And the Fold Degradation (0 vs 50 ng/ml aTc) (GFP-pdt#10 [GFP: P42212])?
Answer: 41.5 fold

Question: What about the Fold Degradation (0 vs 50 ng/ml aTc) (GFP-pdt#11 [GFP: P42212]) of the same substance?
Answer: 17.7 fold

Question: What about the Fold Degradation (0 vs 50 ng/ml aTc) (GFP-pdt#12 [GFP: P42212]) of the same substance?
Answer: 31.6 fold

Question: And the Fold Degradation (0 vs 50 ng/ml aTc) (GFP-pdt#13 [GFP: P42212])?
Answer: 18.6 fold

Question: And the Fold Degradation (0 vs 50 ng/ml aTc) [2]?
Answer: 51.8 fold

Question: What about the Fold Degradation (0 vs 50 ng/ml aTc) [3] of the same substance?
Answer: 61.8 fold

Question: What about the Fold Degradation (0 vs 50 ng/ml aTc) [4] of the same substance?
Answer: 51 fold

Question: And the Fold Degradation (0 vs 50 ng/ml aTc) [5]?
Answer: 48.7 fold

Question: And the Fold Degradation (0 vs 50 ng/ml aTc) [6]?
Answer: 5.4 fold

Question: And the Fold Degradation (0 vs 50 ng/ml aTc) [7]?
Answer: 2.6 fold

Question: What about the Fold Degradation (0 vs 50 ng/ml aTc) (GFP-pdt#5C [GFP: P42212]) of the same substance?
Answer: 1.6 fold

Question: What about the Fold Degradation (0 vs 50 ng/ml aTc) (GFP-pdt#5D [GFP: P42212]) of the same substance?
Answer: 12 fold

Question: What about the Fold Degradation (0 vs 50 ng/ml aTc) (GFP-pdt#5E [GFP: P42212]) of the same substance?
Answer: 7.2 fold

Question: And the Fold Degradation (0 vs 50 ng/ml aTc) (GFP-pdt#5F [GFP: P42212])?
Answer: 4 fold

Question: What about the Fold Degradation (0 vs 50 ng/ml aTc) (GFP-pdt#5G [GFP: P42212]) of the same substance?
Answer: 4.2 fold

Question: And the Fold Degradation (0 vs 50 ng/ml aTc) [8]?
Answer: 3.6 fold

Question: And the Fold Degradation (0 vs 50 ng/ml aTc) [9]?
Answer: 55.4 fold

Question: What about the Fold Degradation (0 vs 50 ng/ml aTc) (GFP-pdt#7 [GFP: P42212]) of the same substance?
Answer: 31.7 fold

Question: And the Fold Degradation (0 vs 50 ng/ml aTc) (GFP-pdt#8 [GFP: P42212])?
Answer: 48.4 fold

Question: And the Fold Degradation (0 vs 50 ng/ml aTc) (GFP-pdt#9 [GFP: P42212])?
Answer: 17 fold

Question: What about the Fold Degradation (0 vs 50 ng/ml aTc) (GFP-pdt#S1 [GFP: P42212]) of the same substance?
Answer: 39.4 fold

Question: What about the Fold Degradation (0 vs 50 ng/ml aTc) (GFP-pdt#S2 [GFP: P42212]) of the same substance?
Answer: 44.9 fold

Question: And the Fold Degradation (0 vs 50 ng/ml aTc) (GFP-pdt#S3 [GFP: P42212])?
Answer: 38.7 fold

Question: And the Fold Degradation (0 vs 50 ng/ml aTc) [10]?
Answer: 1.2 fold

Question: How did the “GFP-pdt#3 (Example 2 name) degradation across ATc levels” value [5] turn out when “mf-Lon fused to the E. coli ssrA tag variant ec-AAV” was run?
Answer: resulting in reduced GFP-pdt#3 degradation throughout the range of ATc levels tested
